Experimental data taken from patent US20240084030A1 (University of California, published 2024).

Tests used:
[1] = biological target: T1, Nectin-4 (UniProt Q96NY8 32-510, limits assumed); experiment: statement in Example 2; no direct binding assay, only degradation on HT-1376 cells
T1 construct: whole, on cells; Endogenous receptor on HT-1376 cells
T1 sequence (looked up): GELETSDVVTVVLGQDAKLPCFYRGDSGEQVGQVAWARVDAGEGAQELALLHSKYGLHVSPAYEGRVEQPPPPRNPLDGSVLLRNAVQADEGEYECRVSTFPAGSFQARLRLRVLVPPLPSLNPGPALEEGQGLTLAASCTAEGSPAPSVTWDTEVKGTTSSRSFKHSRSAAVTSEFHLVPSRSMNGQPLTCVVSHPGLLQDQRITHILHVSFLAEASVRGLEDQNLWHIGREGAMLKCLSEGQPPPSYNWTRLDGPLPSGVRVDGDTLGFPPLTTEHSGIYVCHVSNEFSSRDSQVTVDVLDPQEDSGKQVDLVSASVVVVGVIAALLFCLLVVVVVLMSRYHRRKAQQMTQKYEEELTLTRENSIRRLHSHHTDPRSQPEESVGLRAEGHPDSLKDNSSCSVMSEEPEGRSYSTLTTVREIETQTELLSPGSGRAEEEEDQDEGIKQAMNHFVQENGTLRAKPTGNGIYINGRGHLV
Experimental: (§1) After incubation at 37° C. for the designated time point, cells were washed with phosphate-buffered saline (PBS), lifted with versene, and harvested by centrifugation at 300×g for 5 min at 4° C. Samples were then tested by western blotting or flow cytometry to quantify protein levels.
(§2) Western blotting: Cell pellets were lysed with 1×RIPA buffer containing cOmplete mini protease inhibitor cocktail (Sigma-Aldrich) at 4° C. for 40 min. Lysates were centrifuged at 16,000×g for 10 min at 4° C. and protein concentrations were normalized using BCA assay (Pierce). 4×NuPAGE LDS sample buffer (Invitrogen) and 2-mercaptoethanol (BME) was added to the lysates and boiled for 10 min. Equal amounts of lysates were loaded onto a 4-12% Bis-Tris gel and ran at 200V for 37 min. The gel was incubated in 20% ethanol for 10 min and transferred onto a polyvinylidene difluoride (PVDF) membrane. The membrane was blocked in PBS with 0.1% Tween-20+5% bovine serum albumin (BSA) for 30 min at room temperature with gentle shaking. Membranes were incubated overnight with primary antibodies at respective dilutions at 4° C. with gentle shaking in PBS+0.2% Tween-20+5% BSA. […] Band intensities were quantified using Image Studio Software (LI-COR). […]

[2] = biological target: T2, CDCP1 (UniProt Q9H5V8 30-836, limits assumed); experiment: as above
T2 construct: whole, on cells; Endogenous protein on HT-1376 cells; also called cell surface CDCP1
T2 sequence (looked up): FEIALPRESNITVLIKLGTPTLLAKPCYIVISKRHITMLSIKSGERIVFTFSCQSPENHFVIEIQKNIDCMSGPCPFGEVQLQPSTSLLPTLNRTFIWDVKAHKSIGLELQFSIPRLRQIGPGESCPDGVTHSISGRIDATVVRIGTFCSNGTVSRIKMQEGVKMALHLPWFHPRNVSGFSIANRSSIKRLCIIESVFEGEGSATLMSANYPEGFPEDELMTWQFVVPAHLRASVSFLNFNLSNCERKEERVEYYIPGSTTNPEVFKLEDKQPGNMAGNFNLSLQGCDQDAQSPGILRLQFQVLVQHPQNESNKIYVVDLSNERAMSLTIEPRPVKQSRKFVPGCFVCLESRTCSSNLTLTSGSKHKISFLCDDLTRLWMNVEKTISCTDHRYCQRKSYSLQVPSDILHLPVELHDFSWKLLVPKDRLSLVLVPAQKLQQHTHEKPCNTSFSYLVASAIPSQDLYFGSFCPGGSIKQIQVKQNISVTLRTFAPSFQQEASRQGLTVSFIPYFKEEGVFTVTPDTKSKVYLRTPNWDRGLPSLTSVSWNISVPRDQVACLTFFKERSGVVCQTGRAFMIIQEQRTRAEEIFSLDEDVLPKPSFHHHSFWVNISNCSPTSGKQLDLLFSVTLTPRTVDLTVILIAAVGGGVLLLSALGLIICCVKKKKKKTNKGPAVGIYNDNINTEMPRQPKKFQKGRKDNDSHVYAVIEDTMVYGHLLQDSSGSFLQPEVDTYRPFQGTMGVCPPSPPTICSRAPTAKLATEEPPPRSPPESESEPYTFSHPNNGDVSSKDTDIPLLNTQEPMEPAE
Experimental: as §1, §2

binding result [1]: binds | binding result [2]: binds
B1: Enfortumab-4A06 bispecific antibody (bispecific antibody)
heavy 1: not shown
light 1: DIQMTQSPSSVSASVGDRVTITCRASQGISGWLAWYQQKPGKAPKFLIYAASTLQSGVPSRFSGSGSGTDFTLTISSLQPEDFATYYCQQANSFPPTFGGGTKVEIKRTVAAPSVFIFPPSDEQLKSGTASVVCLLNNFYPREAKVQWKVDNALQSGNSQESVTEQDSKDSTYSLSSTLTLSKADYEKHKVYACEVTHQGLSSPVTKSFNRGEC
heavy 2: EISEVQLVESGGGLVQPGGSLRLSCAASGFNLSYYYIHWVRQAPGKGLEWVASIYSSSSYTSYADSVKGRFTISADTSKNTAYLQMNSLRAEDTAVYYCARAYYGFDYWGQGTLVTVSSASTKGPSVFPLAPSSKSTSGGTAALGCLVKDYFPEPVTVSWNSGALTSGVHTFPAVLQSSGLYSLSSVVTVPSSSLGTQTYICNVNHKPSNTKVDKKVEPKSCDKTHTCPPCPAPELLGGPSVFLFPPKPKDTLMISRTPEVTCVVVDVSHEDPEVKFNWYVDGVEVHNAKTKPREEQYNSTYRVVSVLTVLHQDWLNGKEYKCKVSNKALPAPIEKTISKAKGQPREPQVYTLPPIRELMTSNQVSLSCAVKGFYPSDIAVEWESNGQPENNYKTTPPVLDSDGSFFLVSKLTVDKSRWQQGNVFSCSVMHEALHNHYTQKSLSLSPGK
light 2: DIQMTQSPSSLSASVGDRVTITCRASQSVSSAVAWYQQKPGKAPKLLIYSASSLYSGVPSRFSGSRSGTDFTLTISSLQPEDFATYYCQQSYYYYPITFGQGTKVEIKRTVAAPSVFIFPPSDSQLKSGTASVVCLLNNFYPREAKVQWKVDNALQSGNSQESVTEQDSKDSTYSLSSTLTLSKADYEKHKVYACEVTHQGLSSPVTKSFNRGECGGSDYKDDDDK
notes: It has four different chains; also called Enfortumab (Nectin-4)-4A06 (CDCP1); Enfortumab-4A06 antibody
